The values that follow come from publication PMC9482650, “Quantitative fragmentomics allow affinity mapping of interactomes” (Nature Communications, 2022).

Some targets named below: GORASP1, Q9BQQ3; GRIP2_3, Q9C0E4; GRIP2_7, Q9C0E4; LIMK2, P53671; MAGI1_2, Q96QZ7; NHERF4_2, Q86UT5; PARD3_3, Q8TEW0; SCRIB_1, Q14160; SCRIB_3, Q14160; TJP1_2, Q07157; TJP2_1, Q9UDY2.
Assay in all cases: holdup assay
Common to all, as to parameters: key: below the threshold = too weak to quantify, mostly under pKd 3.1 to 4
Holding throughout (details): plain residues with an end cap or a label only (N-terminal biotin on a linker: ado-ado)

Another assay addresses T1, APBA2_2, Q99767.
T1 sequence (Q99767 654-744, limits assumed, looked up): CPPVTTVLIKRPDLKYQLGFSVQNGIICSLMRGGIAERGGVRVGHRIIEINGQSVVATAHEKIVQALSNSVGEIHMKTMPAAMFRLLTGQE

In the next assay the target is T2, ARHGAP21, Q5T5U3.
T2 sequence (Q5T5U3 45-169, limits assumed, looked up): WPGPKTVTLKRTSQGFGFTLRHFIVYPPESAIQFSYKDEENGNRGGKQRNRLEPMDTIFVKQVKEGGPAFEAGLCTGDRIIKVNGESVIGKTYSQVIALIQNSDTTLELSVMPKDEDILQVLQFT

Another assay has as its target T3, CARD11, Q9BXL7.
T3 sequence (Q9BXL7 662-765, limits assumed, looked up): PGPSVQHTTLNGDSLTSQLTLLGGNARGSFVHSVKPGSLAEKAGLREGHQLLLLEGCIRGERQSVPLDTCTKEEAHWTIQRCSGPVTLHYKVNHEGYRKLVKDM

Another assay has as its target T4, DFNB31_1, Q9P202.
T4 sequence (Q9P202 135-233, limits assumed, looked up): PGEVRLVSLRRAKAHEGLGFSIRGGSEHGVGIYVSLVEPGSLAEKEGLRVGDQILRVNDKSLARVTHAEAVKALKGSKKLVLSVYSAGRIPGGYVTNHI

A further assay has as its target T5, DFNB31_3, Q9P202.
T5 sequence (Q9P202 811-907, limits assumed, looked up): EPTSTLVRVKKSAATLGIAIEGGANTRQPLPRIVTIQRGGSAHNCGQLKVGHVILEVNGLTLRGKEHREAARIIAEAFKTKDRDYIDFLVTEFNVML

The next assay has as its target T6, FRMPD1, Q5SYB0.
T6 sequence (Q5SYB0 52-145, limits assumed, looked up): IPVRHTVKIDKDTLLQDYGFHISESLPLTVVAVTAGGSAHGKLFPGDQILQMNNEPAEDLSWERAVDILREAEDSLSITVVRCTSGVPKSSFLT

For another assay, the target named is T7, HTRA3, P83110.
T7 sequence (P83110 354-453, limits assumed, looked up): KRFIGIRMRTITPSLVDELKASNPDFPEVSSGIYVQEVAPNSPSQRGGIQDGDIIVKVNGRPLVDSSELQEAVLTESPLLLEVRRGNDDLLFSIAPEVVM

Another assay concerns the target T8, PARD3B_1, Q8TEW8.
T8 sequence (Q8TEW8 196-299, limits assumed, looked up): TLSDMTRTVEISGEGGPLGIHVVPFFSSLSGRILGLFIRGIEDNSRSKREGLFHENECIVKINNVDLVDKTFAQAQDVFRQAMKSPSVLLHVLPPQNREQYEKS

For another assay, the target named is T9, PDZD7_3, Q9H5P4.
T9 sequence (Q9H5P4 857-944, limits assumed, looked up): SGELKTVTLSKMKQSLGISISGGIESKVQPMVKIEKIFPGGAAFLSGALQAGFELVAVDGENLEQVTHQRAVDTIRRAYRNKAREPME

The target of the next assay is T10, SIPA1L2, Q9P2F8.
T10 sequence (Q9P2F8 945-1036, limits assumed, looked up): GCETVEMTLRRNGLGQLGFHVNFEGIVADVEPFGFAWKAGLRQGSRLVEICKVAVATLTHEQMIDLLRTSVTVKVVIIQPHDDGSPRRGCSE

Another assay deals with T11, SNTA1, Q13424.
T11 sequence (Q13424 82-180, limits assumed, looked up): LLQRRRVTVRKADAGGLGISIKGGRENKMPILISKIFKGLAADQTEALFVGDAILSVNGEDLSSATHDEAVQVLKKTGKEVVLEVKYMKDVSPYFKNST

The target in the next assay is T12, SNTG1, Q9NSN8.
T12 sequence (Q9NSN8 52-150, limits assumed, looked up): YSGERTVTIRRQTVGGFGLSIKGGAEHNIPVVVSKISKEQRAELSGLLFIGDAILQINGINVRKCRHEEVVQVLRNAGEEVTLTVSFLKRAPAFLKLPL

In another assay the target is T13, TJP3_3, O95049.
T13 sequence (O95049 375-456, limits assumed, looked up): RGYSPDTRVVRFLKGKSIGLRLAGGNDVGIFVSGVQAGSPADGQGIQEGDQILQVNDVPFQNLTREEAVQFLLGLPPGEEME

GORASP1, Q9BQQ3, sequence (Q9BQQ3 1-208): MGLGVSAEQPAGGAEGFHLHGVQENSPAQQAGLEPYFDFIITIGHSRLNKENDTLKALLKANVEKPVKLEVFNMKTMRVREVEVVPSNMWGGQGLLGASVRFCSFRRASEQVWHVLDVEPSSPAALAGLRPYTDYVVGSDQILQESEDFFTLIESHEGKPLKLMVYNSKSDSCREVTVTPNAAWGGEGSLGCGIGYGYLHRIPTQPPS
TJP1_2, Q07157, sequence (Q07157 181-274): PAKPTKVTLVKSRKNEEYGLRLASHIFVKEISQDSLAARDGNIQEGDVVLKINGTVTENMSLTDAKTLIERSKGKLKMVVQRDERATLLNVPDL
SCRIB_1, Q14160, sequence (Q14160 718-814): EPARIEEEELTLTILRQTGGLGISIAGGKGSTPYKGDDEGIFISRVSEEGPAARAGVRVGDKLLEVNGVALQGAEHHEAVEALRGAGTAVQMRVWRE
TJP2_1, Q9UDY2, sequence (Q9UDY2 24-128): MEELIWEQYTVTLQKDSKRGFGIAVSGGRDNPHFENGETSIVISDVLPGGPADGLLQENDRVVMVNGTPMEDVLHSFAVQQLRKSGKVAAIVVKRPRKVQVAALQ
SCRIB_3, Q14160, sequence (Q14160 999-1103): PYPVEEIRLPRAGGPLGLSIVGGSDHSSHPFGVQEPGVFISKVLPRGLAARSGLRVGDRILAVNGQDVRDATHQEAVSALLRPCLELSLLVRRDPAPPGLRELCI
LIMK2, P53671, sequence (P53671 143-248): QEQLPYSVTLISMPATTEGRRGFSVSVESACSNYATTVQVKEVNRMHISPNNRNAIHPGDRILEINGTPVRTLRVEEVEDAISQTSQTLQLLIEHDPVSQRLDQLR
GRIP2_7, Q9C0E4, sequence (Q9C0E4 934-1023): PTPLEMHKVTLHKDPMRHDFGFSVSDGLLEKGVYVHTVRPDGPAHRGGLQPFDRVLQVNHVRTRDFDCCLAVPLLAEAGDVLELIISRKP
MAGI1_2, Q96QZ7, sequence (Q96QZ7 456-580): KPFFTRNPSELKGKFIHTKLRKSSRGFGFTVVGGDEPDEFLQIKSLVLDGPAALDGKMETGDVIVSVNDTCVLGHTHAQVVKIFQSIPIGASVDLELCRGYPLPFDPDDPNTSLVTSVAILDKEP
GRIP2_3, Q9C0E4, sequence (Q9C0E4 238-339): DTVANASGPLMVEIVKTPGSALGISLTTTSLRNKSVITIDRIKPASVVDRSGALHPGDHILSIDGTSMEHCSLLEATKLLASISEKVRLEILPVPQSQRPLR
PARD3_3, Q8TEW0, sequence (Q8TEW0 582-685): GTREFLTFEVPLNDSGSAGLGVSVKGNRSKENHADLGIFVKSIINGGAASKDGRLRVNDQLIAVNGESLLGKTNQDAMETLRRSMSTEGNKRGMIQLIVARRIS
NHERF4_2, Q86UT5, sequence (Q86UT5 220-308): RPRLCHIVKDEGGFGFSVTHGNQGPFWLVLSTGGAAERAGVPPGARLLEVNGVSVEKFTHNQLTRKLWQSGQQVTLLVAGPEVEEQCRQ

In the case of SKQFDKNAYV [CLDN10, P78369], the pKd result is “below the threshold” with APBA2_2, Q99767; 3.84 with ARHGAP21, Q5T5U3; “below the threshold” with CARD11, Q9BXL7; “below the threshold” with DFNB31_1, Q9P202; “below the threshold” with DFNB31_3, Q9P202; “below the threshold” in the assay with FRMPD1, Q5SYB0. The pKd result with GORASP1, Q9BQQ3 is “below the threshold”; with GRIP2_3, Q9C0E4, “below the threshold”; with GRIP2_7, Q9C0E4, “below the threshold”; in the assay with HTRA3, P83110 it was 4.06; with LIMK2, P53671, “below the threshold”; in the assay with MAGI1_2, Q96QZ7 it was “below the threshold”. The pKd entry was “below the threshold” in the assay with NHERF4_2, Q86UT5; 3.97 in the assay with PARD3B_1, Q8TEW8; “below the threshold” with PARD3_3, Q8TEW0; “below the threshold” in the assay with PDZD7_3, Q9H5P4; “below the threshold” with SCRIB_1, Q14160; “below the threshold” with SCRIB_3, Q14160. Moreover, the pKd entry with SIPA1L2, Q9P2F8 was “below the threshold”; in the assay with SNTA1, Q13424 it was 3.55; in the assay with SNTG1, Q9NSN8, “below the threshold”; with TJP1_2, Q07157, 3.61; in the assay with TJP2_1, Q9UDY2, 4.19; in the assay with TJP3_3, O95049 it was 3.68.
For NTALVESEDL [PALLS, Q8WX93;Q8WX93-1], the pKd result with APBA2_2, Q99767 is reported as “below the threshold”; with ARHGAP21, Q5T5U3, “below the threshold”; with CARD11, Q9BXL7 it was “below the threshold”; with DFNB31_1, Q9P202, “below the threshold”; with DFNB31_3, Q9P202, “below the threshold”; in the assay with FRMPD1, Q5SYB0, “below the threshold”. Further, the pKd result in the assay with GORASP1, Q9BQQ3 is “below the threshold”; with GRIP2_3, Q9C0E4, “below the threshold”; in the assay with GRIP2_7, Q9C0E4 it was “below the threshold”; with HTRA3, P83110, “below the threshold”; with LIMK2, P53671, “below the threshold”; in the assay with MAGI1_2, Q96QZ7 it was “below the threshold”. Further, the pKd result with PDZD7_3, Q9H5P4 is “below the threshold”; in the assay with SCRIB_1, Q14160 it was “below the threshold”; with SIPA1L2, Q9P2F8 it was “below the threshold”; with SNTA1, Q13424, “below the threshold”; in the assay with SNTG1, Q9NSN8, “below the threshold”; in the assay with TJP1_2, Q07157 it was “below the threshold”. The pKd result in the assay with TJP2_1, Q9UDY2 is given as “below the threshold”; in the assay with TJP3_3, O95049, “below the threshold”.
PAALPESTHM [SLC9A3, P48764]: the pKd entry with APBA2_2, Q99767 was “below the threshold”; with ARHGAP21, Q5T5U3, 4.05; with CARD11, Q9BXL7, “below the threshold”; with DFNB31_1, Q9P202, “below the threshold”; with DFNB31_3, Q9P202, “below the threshold”; with FRMPD1, Q5SYB0 it was “below the threshold”. Besides, the negative-log Kd (pKd) entry is “below the threshold” with GORASP1, Q9BQQ3; “below the threshold” with GRIP2_3, Q9C0E4; “below the threshold” in the assay with GRIP2_7, Q9C0E4; “below the threshold” in the assay with HTRA3, P83110; “below the threshold” in the assay with LIMK2, P53671; “below the threshold” with MAGI1_2, Q96QZ7. Further, the pKd result with NHERF4_2, Q86UT5 was “below the threshold”; with PARD3B_1, Q8TEW8, 3.6; with PARD3_3, Q8TEW0, “below the threshold”; with PDZD7_3, Q9H5P4, “below the threshold”; with SCRIB_1, Q14160, 3.57; with SCRIB_3, Q14160 it was 3.55. In addition, the pKd entry with SIPA1L2, Q9P2F8 is on record as “below the threshold”; with SNTA1, Q13424 it was “below the threshold”; in the assay with SNTG1, Q9NSN8, “below the threshold”; in the assay with TJP1_2, Q07157 it was “below the threshold”; with TJP2_1, Q9UDY2 it was “below the threshold”; with TJP3_3, O95049 it was “below the threshold”.
Consider VYEVPVETKF [SLC26A3, P40879], for which the pKd entry with APBA2_2, Q99767 was “below the threshold”; in the assay with ARHGAP21, Q5T5U3 it was “below the threshold”; in the assay with CARD11, Q9BXL7, “below the threshold”; in the assay with DFNB31_1, Q9P202 it was 4.21; with DFNB31_3, Q9P202, 3.94; in the assay with FRMPD1, Q5SYB0, “below the threshold”. For the same molecule, the pKd entry with GORASP1, Q9BQQ3 was “below the threshold”; in the assay with GRIP2_3, Q9C0E4, “below the threshold”; in the assay with GRIP2_7, Q9C0E4, “below the threshold”; with HTRA3, P83110, “below the threshold”; in the assay with LIMK2, P53671, “below the threshold”; with MAGI1_2, Q96QZ7 it was “below the threshold”. Further, the pKd entry is “below the threshold” in the assay with NHERF4_2, Q86UT5; 4.19 with PARD3B_1, Q8TEW8; “below the threshold” in the assay with PARD3_3, Q8TEW0; “below the threshold” with PDZD7_3, Q9H5P4; 4.18 with SCRIB_1, Q14160; 4.44 with SCRIB_3, Q14160. Also, the pKd entry with SIPA1L2, Q9P2F8 was “below the threshold”; in the assay with SNTA1, Q13424, “below the threshold”; in the assay with SNTG1, Q9NSN8 it was “below the threshold”; with TJP1_2, Q07157, “below the threshold”; in the assay with TJP2_1, Q9UDY2 it was 4.02; with TJP3_3, O95049, “below the threshold”.

Usually pKd stands for the Kd on a negative log10 scale, so that one unit is a factor of ten.
